This is an account of results in US20100150906A1 (AC IMMUNE S A, published 2010).

As a reminder, the Kd is the concentration at which binding is half-saturated. A high value points to lower affinity. One may read the koff as the rate constant with which the complex falls apart. By kon is commonly meant the rate constant with which the complex forms. A higher kon goes with faster complex formation.

The target of experiment [1] is T1, peptide 17 (also: biotinylated, site not given here).
T1 construct: also called 17 on the axis Peptide number; first peptide library
T1 peptide: LVFFAEDVG
Put plainly: ELISA, biotinylated peptide on streptavidin plate, O.D. 405 nm [upper chart, Figure 1]. From the text: (§1) One library comprised a total of 33 biotinylated peptides covering the complete amino acid (aa) sequence of Aβ1-42 (produced by Mimotopes and purchased from ANAWA Trading SA), the second library contains biotinylated peptides using peptide 12 (aa12-20 of Aβ) from the first peptide library and substituting each aa in the sequence by an alanine (see table 8 below), and the third library contains biotinylated peptides 13, 14, or 15 (aa 13-21, 14-22 or 15-23 of Aβ) and substituting in each case the last amino acids to an alanine or to a glycine for aa 21 which is already an alanine (see table 9 below). A biotinylated complete Aβ1-42 peptide was used as positive control (Bachem). Epitope mapping was done according to the manufacturer's (Mimotopes) instructions. Briefly, Streptavidin coated plates (NUNC) were blocked with 0.1% BSA in PBS overnight at 4° C. After washing with PBS-0.05% Tween 20, plates were coated for 1 hour at RT with the different peptides from the library, diluted in 0.1% BSA, 0.1% Sodium Azide in PBS to a final concentration of 10 μM. […] Plates were washed again and incubated with alkaline phosphatase conjugated goat anti human IgG for 1 h at RT.
In general terms: An ELISA detects its analyte on a solid surface through an enzyme-linked reagent.

In experiment [2] the target is T2, peptide 9 (also: biotinylated, site not given here).
T2 construct: also called 9 on the axis Peptide number; first peptide library
T2 peptide: GYEVHHQKL
The experiment is described as above.
From the text: as §1

In experiment [3] the target is T3, peptide 7 (also: biotinylated, site not given here).
T3 construct: also called 7 on the axis Peptide number; first peptide library
T3 peptide: DSGYEVHHQ
The experiment is described as above.
From the text: as §1

For experiment [4], the target named is T4, peptide 6 (also: biotinylated, site not given here).
T4 construct: also called 6 on the axis Peptide number; first peptide library
T4 peptide: HDSGYEVHH
The experiment is described as above.
From the text: as §1

Experiment [5] addresses T5, peptide 30 (also: biotinylated, site not given here).
T5 construct: also called 30 on the axis Peptide number; first peptide library
T5 peptide: AIIGLMVGG
The description is as above.
From the text: as §1

Experiment [6] deals with T6, peptide 20 (also: biotinylated, site not given here).
T6 construct: also called 20 on the axis Peptide number; first peptide library
T6 peptide: FAEDVGSNK
The description is as above.
From the text: as §1

The target of experiment [7] is T7, peptide 1 (also: biotinylated, site not given here).
T7 construct: also called 1 on the axis Peptide number; first peptide library
T7 peptide: DAEFRHDSG
The experiment is described as above.
From the text: as §1

Experiment [8] concerns the target T8, peptide 31 (also: biotinylated, site not given here).
T8 construct: also called 31 on the axis Peptide number; first peptide library
T8 peptide: IIGLMVGGV
The description is as above.
From the text: as §1

Experiment [9] addresses T9, peptide 32 (also: biotinylated, site not given here).
T9 construct: also called 32 on the axis Peptide number; first peptide library
T9 peptide: IGLMVGGVV
The description is as above.
From the text: as §1

Experiment [10] addresses T10, peptide 23 (also: biotinylated, site not given here).
T10 construct: also called 23 on the axis Peptide number; first peptide library
T10 peptide: DVGSNKGAI
Described as above.
From the text: as §1

The target of experiment [11] is T11, peptide 11 (also: biotinylated, site not given here).
T11 construct: also called 11 on the axis Peptide number; first peptide library
T11 peptide: EVHHQKLVF
The description is as above.
From the text: as §1

The target of experiment [12] is T12, amyloid beta 1-42 fibers (UniProt P05067 672-713).
T12 construct: domain: amyloid beta 1-42; Many copies per fiber; also called Aβ1-42 fibers; fibrillar Aβ1-42
T12 sequence (P05067 672-713 limits assumed): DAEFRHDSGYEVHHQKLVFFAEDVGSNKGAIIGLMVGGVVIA
The experiment in a line: SPR (Biacore X), fibrillar Aβ1-42 on CM5 chip, 1:1 fit. As for the experimental part:
The interactions between AC immune's lead antibody mACI-01-Ab7 C2 (mC2) with amyloid peptide Aβ₁₋₄₂ was studies using surface plasmon resonance. The binding of the mouse antibody mACI-01-Ab7 C2 to either monomers or fibers of Aβ₁₋₄₂ were determined.
All SPR experiments were carried out on a Biacore X instrument (Biacore AB). Reagents for immobilization (EDC, NHS and ethanolamine), sensor chips CM5 and SA as well as running and sample buffer HBS-EP were purchased from Biacore AB. Sodium acetate (10 mM, pH 5.0) was used as coupling buffer to increase coupling yield. Fibrillar Aβ₁₋₄₂ (BAchem) was prepared by adding PBS buffer to Aβ₁₋₄₂ to a final concentration of 3 mg/ml and leaving the vials at 37° C. for 7 days. Fibrillar Aβ₁₋₄₂ was coupled to a CM5 sensor chip containing a surface-bound carboxymethyl dextran matrix. Biotinylated monomeric Aβ₁₋₄₂ (Bachem) was coupled to a Sensor chip SA consisting of carboxymethyl dextran matrix with covalently attached Streptavidin. Typically four or five concentrations of mAb were assayed by serial dilutions using running buffer. Injections were performed starting from the lowest concentration and were passed over both fc 1 and 2 at a flow rate of 30 μL'min for 3 min. Flow cell 2 was underivatised and responses were subtracted from fc 1 to correct for instrument noise and bulk refractive changes. After injection was finished, the surfaces were washed immediately with running buffer for 5 min. To remove remaining bound antibody from the Aβ₁₋₄₂ fibrils, surface regeneration was performed by injecting pulses of 10 mM NaOH. Kinetic analysis was performed using algorithms for numerical integration and global analysis using BIAevaluation 3.0. The curves obtained for injections of analyte at different concentrations were overlaid and the baselines adjusted to zero. For curve fitting, all data were fit simultaneously to a 1:1 homogeneous complex.
A general note: SPR reads the build-up and loss of mass on a sensor chip optically.

Experiment [13] concerns the target T12, amyloid beta 1-42 fibers. The experiment in a line: SPR (BIACORE), Aβ1-42 fibers immobilized on CM5 chip, antibody 0.05-1.0 µM. Here is the method:
BIACORE® technology utilizes changes in the refractive index at the surface layer upon binding of the antibody to the antigen immobilized on the layer. Binding is detected by surface plasmon resonance (SPR) of laser light refracting from the surface. Analysis of the signal kinetics on rate and off rate allows the discrimination between non-specific and specific interaction. The concentration of antibody used was in the range of 0.05 μM to 1.0 μM.

“And” between values parts separate entries of the source, which are not always exact repeats. Equal values may be shown once. No end group written: not given here.

B1: humanized anti-human amyloid beta monoclonal antibody hC2 (antibody, human IgG4 S228P, kappa, V domains shown)
VH: EVQLVESGGGLVQPGGSLRLSCAASGFTFSSYGMSWVRQAPGKGLELVASINSNGGSTYYPDSVKGRFTISRDNAKNSLYLQMNSLRAEDTAVYYCASGDYWGQGTTVTVSS
VL: DIVMTQSPLSLPVTPGEPASISCRSSQSLVYSNGDTYLHWYLQKPGQSPQLLIYKVSNRFSGVPDRFSGSGSGTDFTLKISRVEAEDVGVYYCSQSTHVPWTFGQGTKVEIKR
notes: also called humanized antibody C2; humanized C2
Turning to B1, the binding result in [1], in experiment [2], in experiment [3], in [4], in experiment [5] and in [6] was “no binding (tested: 200 ng/ml (single concentration))” throughout. Besides, the binding result in experiment [7], in experiment [8], in [9], in experiment [10] and in [11] was “no binding (tested: 200 ng/ml (single concentration))” each time.

B2: mouse monoclonal antibody ACI-01-Ab7C2 (antibody, V domains shown)
VH: EVQLVESGGGLVQPGGSLKLSCAASGFTFSSYGMSWVRQTPDKRLELVASINSNGGSTYYPDSVKGRFTISRDNAKNTLYLQMSSLKSEDTAMYYCASGDYWGQGSTLTVSS
VL: DVVMTQTPLSLPVSLGDQASISCRSSQSLVYSNGDTYLHWYLQKPGQSPKLLIYKVSNRFSGVPDRFSGSGSGTDFTLKISRVEAEDLGVYFCSQSTHVPWTFGGGTKLEIK
notes: also called mC2; mACI-01-Ab7 C2
Turning to B2, in [12], the equilibrium dissociation constant (Kd) was 45.8 nM and 41 nM and 17.3 nM; the koff was 0.00149 s⁻¹ and 0.00099 s⁻¹ and 0.000966 s⁻¹; the kon was 24000 M⁻¹ s⁻¹ and 56000 M⁻¹ s⁻¹ and 32600 M⁻¹ s⁻¹. In experiment [13], this molecule showed a dissociation constant Kd of 41 nM, a koff of 0.00099 s⁻¹ and a kon of 24000 M⁻¹ s⁻¹.
